Experiment: yeast display, Sf9 membrane polyspecificity reagent, FACS + sequencing; frameworks hold sequencing errors
In short: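 Polyreactivity labels are assigned by the sorting gate from which each nanobody was recovered. The gates were low and high (top ~1%), set on anti-HA fluorescence for expression and streptavidin fluorescence for reagent binding. Before sorting, galactose-induced (36–48 hours) yeast display cells were stained for 1 hour at 4 °C with 10% biotinylated, detergent-solubilized Sf9 membrane reagent.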

With “QVQLVESGGGLFQAGGSLRLSCAASGRTFQNAMGWYRQAPGKERELVAAISVRGTRTYYADSVKGRFTISRDNAKNTVYLQMNSLKPEDTAVYYCAADRGKATSADDYWGQGTQVTVSW” as the sequence, how does the “polyreactivity (PSR sort gate)” value read?
Its value is “high polyreactivity”.

For “QVQLVESGGGLFQAGGSLRLSCAASGRTFYPNAMGWYRQAPGKERELVAAISWSVGTTHYADSVKGRFTISRDNAKNSVYLQMLSLKPEDTAVYYCNARWYYGVYDYWGQGTQVTVSS”, which “polyreactivity (PSR sort gate)” value is on record?
Its value is “low polyreactivity”.

Which “polyreactivity (PSR sort gate)” value does the source give for “QVQLVESGGGLFQAGGSLRLSCAASGSIFGYYAMGWYIQAPGKERELVARISYSGGTTYYADSVKGRFTISRDNAKNTVYLQMNSLKPEDTAVYYCNARIPYSWRYGYWGQGTQVTVSS” here?
Its value is “high polyreactivity”.

With “QVQLVESGGGLFQAGGSLRLSCAASGSIFTRYAMGWYRQAPGKERELVAAISNRGGRTYYADSVKGRFTISRDNAKNTVYLQMNILKPEDTAVYYCNAATTRRIPQSDNYWGQGTQVTVSS” as the sequence, how does the “polyreactivity (PSR sort gate)” value read?
The value was “high polyreactivity”.

Which “polyreactivity (PSR sort gate)” value does the source give for “QVQLVESGGGLFQAGGSLRLSCAASGSIFVRNAMGWYRKATGKERELVAGISATGGSTYYADSVKGRFTISRDNAKITVYFQMKSLKPEDTAVYYCAKKVSTRFARYRYDYWGQVTQVTVSS” here?
The value was “high polyreactivity”.

With “QVQLVESGGGLFQAGGSLRLSCAASGSTFDTYAMGWYRQAPGKERELVAAISYRGGNTYYADSVKGRFTISRDNAKNTVYLQMNSLKPEDTAVYYCNAGVSIGRSRRYDYWGQGTQVTVSS” as the sequence, how does the “polyreactivity (PSR sort gate)” value read?
The value was “low polyreactivity”.

Which “polyreactivity (PSR sort gate)” value does the source give for “QVQLVESGGGLFQAGGSLRLSCAASGSTFGRYAMGWYRQAPGTEREWLAAISRRGGSTYYADSVKGRFTISRDNAKNTVYLQMNSLKPEDSAVYYCATGYPIDLGREFDYWGQGFQVTVSS” here?
The value was “high polyreactivity”.

Which “polyreactivity (PSR sort gate)” value does the source give for “QVQLVESGGGLFQAGGSLRLSCAASGSTFNTNAMAWYRHAPGKERELVAAISWSSTRTYYADSVKWRFTISRDNAKNTVYLQMNSLKPEDTAVYYCAAATYQSRYFQRFDYWGQGTQVTVSS” here?
The value was “high polyreactivity”.

For “QVQLVESGGGLFQAGGSLRLSCAASGSTFRANAMGWYRQAPGKETELVAAISQSGGITYYADSVKVRFTISRDNAKNTVYLQMKSLKPEDTAVYYCAALGYRIIRGRFYSWGQGTQVTVSS”, which “polyreactivity (PSR sort gate)” value is on record?
Its value is “high polyreactivity”.

With “QVQLVESGGGLFQAGGSLRLSCAASGSTFRHYDMAWYRQAPGKERELVAVISWGGTSTYYADSVKGRFTISRDNAKNTVYLQMHSLKPEDTGVYYCNKAYFPIFKGYEMYYWGQGTQVTVST” as the sequence, how does the “polyreactivity (PSR sort gate)” value read?
The value was “low polyreactivity”.

With “QVQLVESGGGLFQAGGSLRLSCAASGSTFSPNGMGWYRQSPGKERELVAVISTTGGGTYYADSVKVRFTISRDNAKNTVYLQLNSLKPEDTAVYYCAADVWTYSWSWRKYVEFNYWGQGTQVTVSS” as the sequence, how does the “polyreactivity (PSR sort gate)” value read?
Its value is “high polyreactivity”.

Which “polyreactivity (PSR sort gate)” value does the source give for “QVQLVESGGGLFQAGGSLRLSCAASGSTFYIYAMGWYRQAPGKEREFFAAIDFSGSSTYADSEKGRFTISRDNAKNTVYVQMNSLKPEDTAVYYCAAYQIYQYDGPYDYWGQGTQVTVSS” here?
Its value is “low polyreactivity”.

With “QVQLVESGGGLFQAGGSLRLSCAASGSTLAGYTMGWYRQAPGKERELVASISFTGGSTYYADSVKGRFTISRDNAKNTVYLQMNSLKPEDTAVYYCAAGTWQYYFLYDTYRRYYYWGQGTQVTGSS” as the sequence, how does the “polyreactivity (PSR sort gate)” value read?
Its value is “high polyreactivity”.

Which “polyreactivity (PSR sort gate)” value does the source give for “QVQLVESGGGLFQAGGSLRLSCAASGSTLVKNAMGWYRQAPGKERELVAAIDYNDDITYYADSVKGRFTISRDTAKNTVYLQMNSLKPEDTAVYYCAAEPYAGPELDYWGQGTQVTVSS” here?
Its value is “high polyreactivity”.

With “QVQLVESGGGLFQAGGSLRLSCAASGTTFVRYAMGCYRQAPGKDRQLVAAISSSGATTYYADSVKGRFTISRDNAKNTVYLQMNSLKPEDTEVYYCARLYVKRHGYWGQGSQVTVSS” as the sequence, how does the “polyreactivity (PSR sort gate)” value read?
Its value is “high polyreactivity”.

With “QVQLVESGGGLFQAGGSLRLSCAATGSIFDYYAMGWYRQAPGKERELDGTITSGVSTYYADSVKGRFTISRDNAKNTVYLQMISLKPEDTAVYYCARDYAKSQDLYKYDYWGQGTQVTGSS” as the sequence, how does the “polyreactivity (PSR sort gate)” value read?
Its value is “low polyreactivity”.

Which “polyreactivity (PSR sort gate)” value does the source give for “QVQLVESGGGLFQAGGSLRLSCAPSGSIFTTYAMGWYRQAPGKERELVAAITDTCSTNYADSVKGRFTISRDNAKNTVYLQMNSLKPEDTAVYYCAVDLGYEYDWGQGTEVTVSS” here?
Its value is “low polyreactivity”.

For “QVQLVESGGGLFQAGGSLRLSCSASGNTFVPYDMGWYRQAPGKERELVAGITSGGSTYYADSVKGRFTISRDNAKNTVYLQMNSLKPEDTAVYYCAADYYLWVYWYDYWGEGTQVTVSS”, which “polyreactivity (PSR sort gate)” value is on record?
Its value is “high polyreactivity”.

For “QVQLVESGGGLFQAGGSLRLSSAASGSTFSYYVMGWYRQAPGKERELVAAIDYSGDSTYYADSVKGRFTLSRDNAKNTVYLQMNSLKPEDTAVYYCAADDYPWNRYEYWGQGTQVTVSS”, which “polyreactivity (PSR sort gate)” value is on record?
Its value is “low polyreactivity”.

For “QVQLVESGGGLFQAGGSLRLTCAASGSTFPYHTMGWYRQATGKQRDFVAAITGDGGTTYYADSVKGRFTISRDNAKNTVYLQMNSLKPEDTAVYYCNALYAPYGWFYCLYDYWGPGTQVTVSS”, which “polyreactivity (PSR sort gate)” value is on record?
The value was “low polyreactivity”.

Which “polyreactivity (PSR sort gate)” value does the source give for “QVQLVESGGGLFQAGGSLRVSCAASGSTFYLYAMGWSRQAPGKEREWVAAISRRGGTTNYADSVKGRFTISRDNAKNSVYLQMNSLKPEDTAVYDCGADYQSVGGAEYDYWGQGTQVTVSS” here?
The value was “high polyreactivity”.

With “QVQLVESGGGLFQAGGSLSLRCAASGSSFDDYTMGWYRQATGKETELLAAISSAGSTNYADSVKGRFTISRDNAKNTVYLQMNILKPEDTAVYSFAAQVHPLRYDYWGQGTQVTVSS” as the sequence, how does the “polyreactivity (PSR sort gate)” value read?
Its value is “low polyreactivity”.

For “QVQLVESGGGLFQAGGSLSLSCAASGFIFSGYAMGWYRQAPGTERELVAAITWSCSNTFYADSVKGRFTISRDNAKITVFLQMNSLKPEDTAVYYCTAVSKYKRSDYYYWGQGTQVTVSS”, which “polyreactivity (PSR sort gate)” value is on record?
The value was “high polyreactivity”.

Which “polyreactivity (PSR sort gate)” value does the source give for “QVQLVESGGGLFQAGGSLSLSCAASGSTFVKYAMGWYRQAPGKERELVATITRRGGNTYYADSVKGRFKISRVNAKNTVYIQLNSLKPEDTEVYYCNRADYRASYSGQGSYDYWGQGTQVTVSS” here?
Its value is “high polyreactivity”.

With “QVQLVESGGGLFQAGGSRRLICSASGFTFASNAMGWYRQAPGKERELVAAITSRGGGTYYADSVKGRFTISRDNAKNTVYLQMNSLKPEDTAVYYCNVVYGVRYFNSRGYYYWGQGTQVTVSS” as the sequence, how does the “polyreactivity (PSR sort gate)” value read?
Its value is “high polyreactivity”.

Which “polyreactivity (PSR sort gate)” value does the source give for “QVQLVESGGGLFQAGRSLRLSSPASGSSFISYAMGWYRQAPGKDRELVAAITSRGGRTYYADSVKGRFTISRDNAKYTVDLQMNCLKPDDTAVYYCAASFSYRIRRYDYWGQGTQVTVSS” here?
Its value is “high polyreactivity”.

With “QVQLVESGGGLFQAGVSLRLSCAASGRTLQIYHMGWYRQAPGKERELVAAISSSGGSTYYADSVKGRFTISRDNAKNTVYVQMNSLKAEDTAVYYCAADPRGYGYTRKGYYWGQGTQVTVSS” as the sequence, how does the “polyreactivity (PSR sort gate)” value read?
The value was “high polyreactivity”.

For “QVQLVESGGGLFQEGGSLRLSCAASGFTFLVYAKGWYRQAPGKERQLVAAITWSGDSTYYADSVKGRFTISRDNAKNTVYLQMNSLKPEDTAFYYCAAAYRYGTLYYYWGQGTQVTVSS”, which “polyreactivity (PSR sort gate)” value is on record?
The value was “low polyreactivity”.

Which “polyreactivity (PSR sort gate)” value does the source give for “QVQLVESGGGLFQEGGSLRLSCAASGSIFTFYAMGWYRQAPGKERELVAAITSGGSTTYADSVKGRFTISRDNAKNTVYLQMNSLKREDTAVFYCNAESWWGYYYWGQVTQVTVSS” here?
The value was “high polyreactivity”.

With “QVQLVESGGGLFQEGGSLRLSCAASGSTFANYVMGWYRQAPGKEREFVAGITRSGGSTYYADSVKGRFTISRDNAKNTVYLQMNSLKPEDTAVYYCNKVRRASYYYEYDYWGQVTQVTVSS” as the sequence, how does the “polyreactivity (PSR sort gate)” value read?
The value was “low polyreactivity”.

For “QVQLVESGGGLFQEGGSLRLSCAPCGLIFFSYAMGWYRQAPGTERELVAAISRLGGRTYYADSVKGRFTISRDNAKNTVYLQMNSLKPEDTAVYYCATRVWTPIFGYEYWGQGTQVTVSS”, which “polyreactivity (PSR sort gate)” value is on record?
Its value is “low polyreactivity”.

For “QVQLVESGGGLGHAGGSLRLSCAASGGIYDYYAMGWNRQAPGKERELVTAITRSGSSTFYADSVKGRFTISRDNAKNTVYLQMKSVKPEDTAVYYCAAPYYYFAVYYGYIFEYDYWGQGTQVTVSS”, which “polyreactivity (PSR sort gate)” value is on record?
The value was “low polyreactivity”.

With “QVQLVESGGGLGQAGGSLRLSCAASGFTFDFYAMGWYRQAPGKERELVAAISKNDGTTYYADSVKGRFTISRDNAKNTVYLQMNSLKPEDTAVYYCAAESGYPVYTYVSSGDYWGQGTQVTVSS” as the sequence, how does the “polyreactivity (PSR sort gate)” value read?
Its value is “low polyreactivity”.

For “QVQLVESGGGLGQAGGSLRLSCAASGFTFRKYVMGWYRQAPGKERALVAAITSGGSTNYADSVKGRFTISRDNAKNTVYLQMNSVIPEDTAVYYCATVPGARVHYPTGDYWGQGTQVTVSS”, which “polyreactivity (PSR sort gate)” value is on record?
Its value is “high polyreactivity”.

With “QVQLVESGGGLGQAGGSLRLSCAASGIIFLDNAMGWYRQAPGKERELVAAYADSVKGRFTISRDNSNNTVYLQMNSLKPEDTAVYYCNVVLYKYSPTDSWITYDYWGQGTQVTVSS” as the sequence, how does the “polyreactivity (PSR sort gate)” value read?
The value was “low polyreactivity”.

With “QVQLVESGGGLGQAGGSLRLSCAASGITFRSYAMGWYRQAPGKERELVATISWSGGITYYADSVKGRFTISRDNAKNTVYLQMNSLKPEDTAVYYCAKASQSWGPDDYYYWGQGTQVTVSS” as the sequence, how does the “polyreactivity (PSR sort gate)” value read?
The value was “low polyreactivity”.

Which “polyreactivity (PSR sort gate)” value does the source give for “QVQLVESGGGLGQAGGSLRLSCAASGITFVVYAMGWYRQAPGKERELVATISSGGSTNYADSVKGRFTISRDNAKNTVYLQMNSLKPEDTAVYYCNRVSVYRSSHLLWGGYWGQGTQVTVSS” here?
The value was “low polyreactivity”.

Which “polyreactivity (PSR sort gate)” value does the source give for “QVQLVESGGGLGQAGGSLRLSCAASGRIFFGNARGWYRQAPGKEREFVAAISLTGVTTSYADSVKGRFTISRDNAKNTVYLQMNSLKPEDTAVYYCARDYSYYTHAYDYWGQGTQVTVSS” here?
The value was “low polyreactivity”.

Which “polyreactivity (PSR sort gate)” value does the source give for “QVQLVESGGGLGQAGGSLRLSCAASGRIFYRNAMGWYRQAPGKERELVAAISSSGSTNYADSVKGRFTISRDNAKNTVYLQMNSLKPEDTAVDYCNDVVRWGYGYDYWGQGTQVTVSS” here?
Its value is “high polyreactivity”.

With “QVQLVESGGGLGQAGGSLRLSCAASGRIVSNAMGWYRQAPGKERELVAAISRRGGSTYYADSVKGRFTISRENAKNTVYLQMNSLIPEDTAVYSCASRPFFTYRWYDYWGQGTQVTVSS” as the sequence, how does the “polyreactivity (PSR sort gate)” value read?
The value was “high polyreactivity”.

With “QVQLVESGGGLGQAGGSLRLSCAASGRTFYYNAMGWYRQAPGKERELVAAITRSGGRTYYADSVKGRFTISRDTAKNTVYLQMNSLKPEDTAVYYCAARWSSYYSSMDYWGQGSQVTVSS” as the sequence, how does the “polyreactivity (PSR sort gate)” value read?
Its value is “high polyreactivity”.

— the nanobody polyreactivity screen of Harvey et al. (2022)
